Here are results for one molecule from patent EP4803885A1, “PROBE AND USE THEREOF IN IMAGING AND THERAPY” (priority 2023, dated 2025).

This data set in a line: Near-infrared imaging of DIII-EphB4-EBD after conjugation with dye. The format is physicochemical. To be noted: after conjugation with near-infrared fluorescent dye, different concentrations, compared with Dye@DIII. From the text: After induction, the supernatant of the BMMY induced expression culture was collected and sequentially filtered through 0.8 µm, 0.45 µm, and 0.22 µm membranes. The filtrate was then purified using an Albupure affinity column. The purified product was subjected to SDS-PAGE and near-infrared imaging for identification. As shown in Fig. 19 (left), the final eluate contained a highly purified product (indicated by the red dashed box).

B1: DIII-EphB4-EBD: fusion protein of albumin DIII and EphB4 ephrin-binding domain (SEQ ID NO: 14), tested after conjugation with near-infrared fluorescent dye (conjugate)
chain: VEEPQNLIKQNCELFEQLGEYKFQNALLVRYTKKVPQVSTPTLVEVSRNLGKVGSKCCKHPEAKRMPCAEDYLSVVLNQLCVLHEKTPVSDRVTKCCTESLVNRRPCFSALEVDETYVPKEFNAETFTFHADICTLSEKERQIKKQTALVELVKHKPKATKEQLKAVMDDFFVEKCCKADDKETCFAEEGKKLVSQLGLGGGGSGGGGSEETLLNTKLETADLKWVTFPQVDGQWEELSGLDEEQHSVRTYEVCDVQRAPGQAHWLRTGWVPRRGAVHVYATLRFTMLECLSLPRAGRSCKETFTVFYYESDADTATALTPAWMENPYIKVDTVAAEHLTRKRPGAEATGKVNVKTLRLGPLSKAGFYLAFQDQGACMALLSLHLFYKKCAQLTV
modifications: near-infrared fluorescent dye conjugated
As for B1, the fluorescence characteristics entry is reported as “fluorescence characteristics consistent with those of the original DIII”.
